doi:10.1101/2024.09.03.610704

Columns and labels:
[1] = molecular target: mitochondrial respiratory complex III dimer (Chlamydomonas reinhardtii); assay: cryo-EM structure
[2] = molecular target: mitochondrial respiratory complex IV monomer (Chlamydomonas reinhardtii); assay: cryo-EM structure

**Q.** With “cytochrome c (from UniProt P15451 1-112) (natural protein)” as the substance, how does the stoichiometry N (cyt. c per complex III dimer) [1] read?
**A.** 2

**Q.** And the stoichiometry N (cyt. c per complex IV monomer) [2]?
**A.** 1
